From PMC2174006 come the findings set out here.

This experiment concerns the target Flag–Rab32 (human) (UniProt Q13637). Description: co-IP.

endogenous PKA holoenzyme, sequence (P13861 whole entry, one chain of several): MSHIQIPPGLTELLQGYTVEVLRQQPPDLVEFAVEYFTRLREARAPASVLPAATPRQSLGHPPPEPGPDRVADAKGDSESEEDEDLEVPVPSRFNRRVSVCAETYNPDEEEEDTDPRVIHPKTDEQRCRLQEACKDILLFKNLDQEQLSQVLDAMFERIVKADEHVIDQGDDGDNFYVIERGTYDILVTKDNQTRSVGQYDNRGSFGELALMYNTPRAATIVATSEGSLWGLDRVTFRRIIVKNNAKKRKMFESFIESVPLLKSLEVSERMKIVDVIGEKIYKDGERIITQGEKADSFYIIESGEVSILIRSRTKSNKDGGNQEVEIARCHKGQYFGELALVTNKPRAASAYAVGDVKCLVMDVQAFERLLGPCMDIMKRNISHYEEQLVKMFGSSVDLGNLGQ
Flag–Rab32 (human), sequence (Q13637 whole entry): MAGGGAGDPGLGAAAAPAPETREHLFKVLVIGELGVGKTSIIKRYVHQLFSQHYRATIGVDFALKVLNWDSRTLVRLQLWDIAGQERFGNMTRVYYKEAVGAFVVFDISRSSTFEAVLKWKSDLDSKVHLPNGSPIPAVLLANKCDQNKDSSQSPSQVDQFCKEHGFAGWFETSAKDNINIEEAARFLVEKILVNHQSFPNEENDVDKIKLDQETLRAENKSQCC

The substance “endogenous PKA holoenzyme (from UniProt P13861 1-404; P17612 1-351) (complex)” registered a fold enrichment of PKA activity in the immune complexes of 7.1 fold.
